B1: Azoarcus group I ribozyme (parent)
chain: GUGCCUUGCGCCGGGAAACCACGCAAGGGAUGGUGUCAAAUUCGGCGAAACCUAAGCGCCCGCCCGGGCGUAUGGCAACGCCGAGCCAAGCUUCGGCGCCUGCGCCGAUGAAGGUGUAGAGACUAGACGGCACCCACCUAAGGCAAACGCUAUGGUGAAGGCAUAGUCCAGGGAGUGGCGAAAGUCACACAAACCGG

Variants of B1 are the subject of the data set. Description: reverse-splicing fitness (ratio to wild type); higher = more active; in vitro selection; Mg2+ level not given. The procedure, abridged: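 An in vitro group I ribozyme library with randomized positions was T7-transcribed and gel-purified. In triplicate, 10 pmol RNA in EPPS pH 7.5 was reacted with 50 pmoles of a 30-nt RNA substrate for 1 h at 37 °C across several added MgCl2 levels (1–48 mM), then stopped with EDTA. Products were reverse transcribed from a substrate-complementary primer, PCR-amplified and sequenced (HiSeq 4000). Fitness is a variant's read proportion after selection over that before, normalised to wild type.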
On to GUGCCUUGCGCCGGGAAACCACGCAAGGGAUGGUGUCAAAUUCGGCGAAACCUAAGCGCCCGCCCGGGCGUAUGGCAACGCCGAGCCAAGCUUCGGCGCCUGCGCCGAUGCAGGUGUAGCGACUAGACGGCACCCACCUAAGGCAAACGGUAUGGUGAAGGCAUAGUCAAGGGAGCGGCGAAAGUCACACAAACCGG [A111C A120C C150G C169A U176C], for which the reverse-splicing fitness amounted to 0.00966.

On to GUGCCUUGCGCCGGGAAACCACGCAAGGGAUGGUGUCAAAUUCGGCGAAACCUAAGCGCCCGCCCGGGCGUAUGGCAACGCCGAGCCAAGCUUCGGCGCCUGCGCCGAUGCAGGUGUAGCGACUAGACGGCACCCACCUAAGGCAAACGGUAUGGUGAAGGCAUAGUCAAGGGAGGGGCGAAAGUCACACAAACCGG [A111C A120C C150G C169A U176G], for which the reverse-splicing fitness amounted to 0.00561.

GUGCCUUGCGCCGGGAAACCACGCAAGGGAUGGUGUCAAAUUCGGCGAAACCUAAGCGCCCGCCCGGGCGUAUGGCAACGCCGAGCCAAGCUUCGGCGCCUGCGCCGAUGCAGGUGUAGCGACUAGACGGCACCCACCUAAGGCAAACGGUAUGGUGAAGGCAUAGUCAAGGGAGAGGCGAAAGUCACACAAACCGG [A111C A120C C150G C169A U176A]: the reverse-splicing fitness was 0.00884.

Regarding GUGCCUUGCGCCGGGAAACCACGCAAGGGAUGGUGUCAAAUUCGGCGAAACCUAAGCGCCCGCCCGGGCGUAUGGCAACGCCGAGCCAAGCUUCGGCGCCUGCGCCGAUGCAGGUGUAGCGACUAGACGGCACCCACCUAAGGCAAACGAUAUGGUGAAGGCAUAGUCUAGGGAGGGGCGAAAGUCACACAAACCGG [A111C A120C C150A C169U U176G], the reverse-splicing fitness is 0.00635.

Consider GUGCCUUGCGCCGGGAAACCACGCAAGGGAUGGUGUCAAAUUCGGCGAAACCUAAGCGCCCGCCCGGGCGUAUGGCAACGCCGAGCCAAGCUUCGGCGCCUGCGCCGAUGCAGGUGUAGCGACUAGACGGCACCCACCUAAGGCAAACGGUAUGGUGAAGGCAUAGUCUAGGGAGAGGCGAAAGUCACACAAACCGG [A111C A120C C150G C169U U176A], for which the reverse-splicing fitness worked out at 0.00759.

In the case of GUGCCUUGCGCCGGGAAACCACGCAAGGGAUGGUGUCAAAUUCGGCGAAACCUAAGCGCCCGCCCGGGCGUAUGGCAACGCCGAGCCAAGCUUCGGCGCCUGCGCCGAUGCAGGUGUAGCGACUAGACGGCACCCACCUAAGGCAAACGGUAUGGUGAAGGCAUAGUCUAGGGAGUGGCGAAAGUCACACAAACCGG [A111C A120C C150G C169U], the reverse-splicing fitness stood at 0.02.

For GUGCCUUGCGCCGGGAAACCACGCAAGGGAUGGUGUCAAAUUCGGCGAAACCUAAGCGCCCGCCCGGGCGUAUGGCAACGCCGAGCCAAGCUUCGGCGCCUGCGCCGAUGCAGGUGUAGCGACUAGACGGCACCCACCUAAGGCAAACGGUAUGGUGAAGGCAUAGUCAAGGGAGUGGCGAAAGUCACACAAACCGG [A111C A120C C150G C169A], the reverse-splicing fitness amounted to 0.00914.

As for GUGCCUUGCGCCGGGAAACCACGCAAGGGAUGGUGUCAAAUUCGGCGAAACCUAAGCGCCCGCCCGGGCGUAUGGCAACGCCGAGCCAAGCUUCGGCGCCUGCGCCGAUGCAGGUGUAGCGACUAGACGGCACCCACCUAAGGCAAACGGUAUGGUGAAGGCAUAGUCGAGGGAGUGGCGAAAGUCACACAAACCGG [A111C A120C C150G C169G], the reverse-splicing fitness was determined as 0.00757.

As for GUGCCUUGCGCCGGGAAACCACGCAAGGGAUGGUGUCAAAUUCGGCGAAACCUAAGCGCCCGCCCGGGCGUAUGGCAACGCCGAGCCAAGCUUCGGCGCCUGCGCCGAUGCAGGUGUAGCGACUAGACGGCACCCACCUAAGGCAAACGGUAUGGUGAAGGCAUAGUCCAGGGAGUGGCGAAAGUCACACAAACCGG [A111C A120C C150G], the reverse-splicing fitness is 0.0496.

As for GUGCCUUGCGCCGGGAAACCACGCAAGGGAUGGUGUCAAAUUCGGCGAAACCUAAGCGCCCGCCCGGGCGUAUGGCAACGCCGAGCCAAGCUUCGGCGCCUGCGCCGAUGCAGGUGUAGCGACUAGACGGCACCCACCUAAGGCAAACGAUAUGGUGAAGGCAUAGUCCAGGGAGAGGCGAAAGUCACACAAACCGG [A111C A120C C150A U176A], the reverse-splicing fitness was 0.0343.

In the case of GUGCCUUGCGCCGGGAAACCACGCAAGGGAUGGUGUCAAAUUCGGCGAAACCUAAGCGCCCGCCCGGGCGUAUGGCAACGCCGAGCCAAGCUUCGGCGCCUGCGCCGAUGCAGGUGUAGCGACUAGACGGCACCCACCUAAGGCAAACGAUAUGGUGAAGGCAUAGUCCAGGGAGCGGCGAAAGUCACACAAACCGG [A111C A120C C150A U176C], the reverse-splicing fitness came to 0.0495.

In the case of GUGCCUUGCGCCGGGAAACCACGCAAGGGAUGGUGUCAAAUUCGGCGAAACCUAAGCGCCCGCCCGGGCGUAUGGCAACGCCGAGCCAAGCUUCGGCGCCUGCGCCGAUGCAGGUGUAGCGACUAGACGGCACCCACCUAAGGCAAACGAUAUGGUGAAGGCAUAGUCCAGGGAGGGGCGAAAGUCACACAAACCGG [A111C A120C C150A U176G], the reverse-splicing fitness turned out to be 0.0118.

Consider GUGCCUUGCGCCGGGAAACCACGCAAGGGAUGGUGUCAAAUUCGGCGAAACCUAAGCGCCCGCCCGGGCGUAUGGCAACGCCGAGCCAAGCUUCGGCGCCUGCGCCGAUGCAGGUGUAGCGACUAGACGGCACCCACCUAAGGCAAACGGUAUGGUGAAGGCAUAGUCGAGGGAGGGGCGAAAGUCACACAAACCGG [A111C A120C C150G C169G U176G], for which the reverse-splicing fitness is 0.00564.

Regarding GUGCCUUGCGCCGGGAAACCACGCAAGGGAUGGUGUCAAAUUCGGCGAAACCUAAGCGCCCGCCCGGGCGUAUGGCAACGCCGAGCCAAGCUUCGGCGCCUGCGCCGAUGCAGGUGUAGCGACUAGACGGCACCCACCUAAGGCAAACGGUAUGGUGAAGGCAUAGUCGAGGGAGCGGCGAAAGUCACACAAACCGG [A111C A120C C150G C169G U176C], the reverse-splicing fitness turned out to be 0.00683.

As for GUGCCUUGCGCCGGGAAACCACGCAAGGGAUGGUGUCAAAUUCGGCGAAACCUAAGCGCCCGCCCGGGCGUAUGGCAACGCCGAGCCAAGCUUCGGCGCCUGCGCCGAUGCAGGUGUAGCGACUAGACGGCACCCACCUAAGGCAAACGGUAUGGUGAAGGCAUAGUCGAGGGAGAGGCGAAAGUCACACAAACCGG [A111C A120C C150G C169G U176A], the reverse-splicing fitness came out at 0.00796.

The values above are taken from the RNAGym collection of RNA variant scans (doi:10.1093/molbev/msab373).
